In experiment [1] the target is RAGE on cultured bovine aortic endothelial cells (BAEC RAGE) (bovine) (UniProt Q28173). Put plainly: binding to endothelial cells in culture wells.
Experiment [2] has as its target RAGE on macrophages / macrophage-like cultured BV2 cells (MP RAGE) (UniProt Q62151). Kind of experiment: binding to macrophages in culture wells.
Experiment [3] concerns the target cellular RAGE on human cells (HUVEC, Molt-4 cells, PBMC, Jurkat cells) (human) (UniProt Q15109). Kind of experiment: cell-based or functional assay.
The target of experiment [4] is purified soluble human RAGE (sRAGE), prepared from a baculovirus expression system (human) (UniProt Q15109). Put plainly: binding to immobilised RAGE in wells.
Chain of purified soluble human RAGE (sRAGE), prepared from a baculovirus expression system (human) (Q15109 23-342): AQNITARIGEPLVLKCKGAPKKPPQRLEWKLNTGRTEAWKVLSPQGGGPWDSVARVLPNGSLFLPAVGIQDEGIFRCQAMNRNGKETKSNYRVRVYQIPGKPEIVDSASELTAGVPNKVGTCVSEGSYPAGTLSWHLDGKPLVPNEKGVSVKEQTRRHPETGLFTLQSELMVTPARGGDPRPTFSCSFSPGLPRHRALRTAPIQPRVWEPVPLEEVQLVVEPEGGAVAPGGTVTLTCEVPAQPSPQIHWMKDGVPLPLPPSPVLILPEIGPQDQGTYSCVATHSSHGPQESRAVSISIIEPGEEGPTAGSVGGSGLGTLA
Experiment [5] addresses cellular RAGE on human cells (HUVEC, Molt-4 cells, PBMC, Jurkat cells) (human, UniProt Q15109 23-404). Put plainly: cell-based or functional assay.
Experiment [6] has as its target T1, RAGE on cultured bovine aortic endothelial cells (BAEC RAGE) (bovine, UniProt Q28173 23-416).
T1 construct: whole, on cells; also called BAECs; endothelial (EC) RAGE
T1 sequence (looked up): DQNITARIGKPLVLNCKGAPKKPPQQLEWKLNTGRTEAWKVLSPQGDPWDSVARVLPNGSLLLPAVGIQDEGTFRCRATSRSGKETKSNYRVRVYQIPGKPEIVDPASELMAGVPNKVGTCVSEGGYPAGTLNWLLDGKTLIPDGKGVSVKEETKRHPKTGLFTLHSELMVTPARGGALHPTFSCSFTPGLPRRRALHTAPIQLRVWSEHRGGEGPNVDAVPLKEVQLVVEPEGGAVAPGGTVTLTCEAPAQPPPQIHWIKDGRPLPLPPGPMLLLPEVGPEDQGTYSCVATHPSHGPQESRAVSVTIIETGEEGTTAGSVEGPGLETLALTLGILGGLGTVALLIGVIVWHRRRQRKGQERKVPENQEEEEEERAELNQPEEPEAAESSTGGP
Put plainly: radioligand binding on cultured bovine aortic endothelial cells. On the procedure:
These experiments were performed at least five times with analogous results.
Purified EN-RAGE was radiolabelled using ^125-I and Iodobeads (Pierce) to a specific activity of approximately 5,000 cpm/ng. Radioligand binding assays were performed in 96-well dishes to which had been adsorbed either purified human RAGE (5 µg/well) or bovine aortic endothelial cells. In the former case, after adsorption of human soluble RAGE to the plastic dish in carbonate/bicarbonate buffer (pH 9.3) overnight, wells were then washed with PBS containing Tween 20 (0.05%). Unoccupied binding sites on the plastic wells were blocked by incubation with PBS containing calcium/magnesium and bovine serum albumin (1%) for two hours at 37° C. […] Solution was then aspirated from the wells and counted in a gamma counter (LKB, Gaithersburg, Md.). […] Equilibrium binding data were analyzed according to the equation of Klotz and Hunston (Klotz and Hunston, 1984): B=nKA/1+KA, where B=specifically bound ligand (total binding, wells incubated with tracer alone, minus nonspecific binding, wells incubated with tracer in the presence of excess unlabelled material), n=sites/cell, K=the […] constant, and A=free ligand concentration) using nonlinear least-squares analysis (Prism; San Diego, Calif.). […]

Experiment [7] deals with T2, purified soluble human RAGE (sRAGE), prepared from a baculovirus expression system (human, UniProt Q15109 23-342).
T2 construct: extracellular domain; Adsorbed to plastic wells at 5 µg/well or to Affi-gel resin; also called soluble RAGE; human soluble RAGE
T2 sequence (Q15109 23-342): as the sequence (Q15109 23-342) above
Kind of experiment: radioligand binding, 125-I EN-RAGE ± 50-fold unlabelled EN-RAGE on immobilised human sRAGE. How it is done: Radioligand binding assays were performed employing the indicated concentration of ^125-I EN-RAGE in the presence or absence of excess unlabelled EN-RAGE (50-fold). […] Where indicated, radiolabelled EN-RAGE (100 nM) was incubated with the indicated amount of excess sRAGE two hours prior to binding assay, or wells were preincubated for two hours with the indicated concentration of rabbit nonimmune IgG, or polyclonal monospecific rabbit anti-EN-RAGE IgG or anti-RAGE IgG prior to binding assay and results reported as % maximal specific binding±SD of the mean. These experiments were performed at least five times with analogous results.
Purified EN-RAGE was radiolabelled using ^125-I and Iodobeads (Pierce) to a specific activity of approximately 5,000 cpm/ng. Radioligand binding assays were performed in 96-well dishes to which had been adsorbed either purified human RAGE (5 µg/well) or bovine aortic endothelial cells. In the former case, after adsorption of human soluble RAGE to the plastic dish in carbonate/bicarbonate buffer (pH 9.3) overnight, wells were then washed with PBS containing Tween 20 (0.05%). Unoccupied binding sites on the plastic wells were blocked by incubation with PBS containing calcium/magnesium and bovine serum albumin (1%) for two hours at 37° C. […] Solution was then aspirated from the wells and counted in a gamma counter (LKB, Gaithersburg, Md.). […]

The target in experiment [8] is T2, purified soluble human RAGE (sRAGE), …. Put plainly: elution from RAGE-Affi-gel resin; radioligand binding assay. The text has this: Isolation and purification of EN-RAGE. Bovine lung acetone powder (SIGMA@) was subjected to solubilization in buffer containing tris (0.02M, pH 7.4); NaCl (0.15M); octyl-β-glucoside (1%); and protease inhibitors (PMSF and aprotinin). After serial chromatography onto SP sepharose (Pharmacia LKB®), and affi-gel 10 resin (BIO-RAD®) to which had been adsorbed purified soluble human RAGE (prepared from a baculovirus expression system), RAGE-binding proteins were identified based on a screening assay employing immobilized column fraction (Nunc Maxisorp dishes) (NUNC®) and ^125-I-labelled sRAGE as above. After elution with heparin-containing buffer (1 mg/ml), positive fractions were identified. RAGE-binding proteins were subjected to sequence analysis.

Chain of cellular RAGE on human cells (HUVEC, Molt-4 cells, PBMC, Jurkat cells) (Q15109 23-404): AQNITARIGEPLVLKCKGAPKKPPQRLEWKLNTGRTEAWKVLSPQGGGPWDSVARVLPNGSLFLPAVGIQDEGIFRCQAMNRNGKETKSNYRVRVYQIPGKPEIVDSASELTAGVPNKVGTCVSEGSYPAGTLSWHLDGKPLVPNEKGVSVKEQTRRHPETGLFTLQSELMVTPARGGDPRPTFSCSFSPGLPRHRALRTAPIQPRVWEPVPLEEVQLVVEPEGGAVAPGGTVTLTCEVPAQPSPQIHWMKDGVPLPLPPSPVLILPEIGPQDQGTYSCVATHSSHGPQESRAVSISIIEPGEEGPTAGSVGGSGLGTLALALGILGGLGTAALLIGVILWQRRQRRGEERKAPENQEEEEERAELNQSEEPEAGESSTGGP
Chain of cellular RAGE on human cells (HUVEC, Molt-4 cells, PBMC, Jurkat cells) (human) (Q15109 23-404): as above
Chain of RAGE on macrophages / macrophage-like cultured BV2 cells (MP RAGE) (Q62151 23-402 limits assumed): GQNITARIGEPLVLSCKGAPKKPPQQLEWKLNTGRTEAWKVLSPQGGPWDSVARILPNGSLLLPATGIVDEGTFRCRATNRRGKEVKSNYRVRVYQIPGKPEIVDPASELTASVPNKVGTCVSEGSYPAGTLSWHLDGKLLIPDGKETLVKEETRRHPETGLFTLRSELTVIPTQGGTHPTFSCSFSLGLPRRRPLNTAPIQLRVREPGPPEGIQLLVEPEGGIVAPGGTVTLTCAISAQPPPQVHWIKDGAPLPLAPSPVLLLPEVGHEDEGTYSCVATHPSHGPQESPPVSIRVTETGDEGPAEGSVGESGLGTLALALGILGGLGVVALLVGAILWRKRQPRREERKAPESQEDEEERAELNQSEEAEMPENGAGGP

“≈12 kDa RAGE-binding polypeptide isolated and purified from bovine lung extract, called EN-RAGE (from UniProt P79105 2-51) (ligand)”: the Kd in experiment [1], in experiment [2] and in experiment [4] was 75 nM in each case. This molecule also displayed an adhesion of Molt-4 cells to cultured ECs in experiment [3] of 7 fold. Moreover, in experiment [3], the expression of cell-surface VCAM-1 on cultured ECs is 4.3 fold.

B1: purified S100B from human brain (Calbiochem-Novabiochem) (ligand, UniProt P04271 2-92, looked up)
chain: SELEKAMVALIDVFHQYSGREGDKHKLKKSELKELINNELSHFLEEIKEQEVVDKVMETLDNDGDGECDFQEFMAFVAMVTTACHEFFEHE
In the case of B1, in experiment [5], the “nuclear translocation of NF-kB in HUVEC (EMSA)” value was roughly 13.9 fold.

B2: recombinant bovine EN-RAGE (Extracellular Novel RAGE binding protein), expressed in Sf9 cells from a baculovirus system (ligand)
chain: TKLEDHLEGIINIFHQYSVRVGHFDTLNKRELKQLITKELPKTLQNTKDQPTIDKIFQDLDADKDGAVSFEEFVVLVSRVLKTAHIDIHK
modifications: radiolabelled with 125-I (Iodobeads) in the radioligand binding assays; unlabelled in the cell activation assays
notes: also called 125-I EN-RAGE; radiolabelled EN-RAGE
For B2, the “nuclear NF-kB in HUVEC (EMSA, densitometry)” value in experiment [5] worked out at 5 fold. For the same molecule, the figures for the Kd in experiment [6] and in experiment [7] were roughly 90.3 nM and roughly 91 nM, respectively.

B3: ≈23 kDa polypeptide from bovine lung extract, identified as amphoterin (ligand, UniProt P10103 2-215, looked up)
chain: GKGDPKKPRGKMSSYAFFVQTCREEHKKKHPDASVNFSEFSKKCSERWKTMSAKEKGKFEDMAKADKARYEREMKTYIPPKGETKKKFKDPNAPKRPPSAFFLFCSEYRPKIKGEHPGLSIGDVAKKLGEMWNNTAADDKQPYEKKAAKLKEKYEKDIAAYRAKGKPDAAKKGVVKAEKSKKKKEEEEDEEDEEDEEEEEDEEDEEEEEDDDDE
notes: The identification is cited to Hori et al., 1995
As for B3, in experiment [8], the binding result was “binds”.

Source of the values: patent US6555340.
